Residue numbers refer to the chain shown, from its start.

This is an account of results in patent publication US20250243281A1 (IMMUNITAS THERAPEUTICS, published 2025).

To fix the notation:
T1: hKLRF1 (human, UniProt Q9NZS2 1-231)
T1 construct: Overexpressed on HEK293 cells
T1 sequence: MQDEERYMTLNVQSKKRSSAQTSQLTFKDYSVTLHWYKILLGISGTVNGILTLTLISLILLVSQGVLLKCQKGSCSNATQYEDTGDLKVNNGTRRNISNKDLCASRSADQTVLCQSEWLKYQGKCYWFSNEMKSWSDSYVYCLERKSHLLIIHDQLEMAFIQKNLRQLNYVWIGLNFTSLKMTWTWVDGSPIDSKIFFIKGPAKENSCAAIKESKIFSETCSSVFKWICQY

T2: hKLRF2 (human, UniProt D3W0D1 1-207)
T2 construct: Overexpressed on HEK293 cells
T2 sequence: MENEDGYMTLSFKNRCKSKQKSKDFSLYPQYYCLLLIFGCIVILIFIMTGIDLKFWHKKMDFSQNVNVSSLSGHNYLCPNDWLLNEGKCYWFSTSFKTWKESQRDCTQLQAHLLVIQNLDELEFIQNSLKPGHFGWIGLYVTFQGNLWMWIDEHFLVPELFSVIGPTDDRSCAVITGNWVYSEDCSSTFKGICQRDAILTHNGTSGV

T3: hCLEC12B (human, UniProt Q2HXU8 1-276)
T3 construct: Overexpressed on HEK293 cells
T3 sequence: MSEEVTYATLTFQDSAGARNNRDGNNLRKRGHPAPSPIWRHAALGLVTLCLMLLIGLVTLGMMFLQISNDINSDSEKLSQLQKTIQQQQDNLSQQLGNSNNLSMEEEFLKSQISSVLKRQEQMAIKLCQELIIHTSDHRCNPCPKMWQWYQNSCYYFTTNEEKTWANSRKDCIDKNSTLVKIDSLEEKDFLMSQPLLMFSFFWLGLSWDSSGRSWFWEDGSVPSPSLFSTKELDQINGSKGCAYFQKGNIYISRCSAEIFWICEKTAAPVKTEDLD

T4: hCLEC2D (human, UniProt Q9UHP7 1-191)
T4 construct: Overexpressed on HEK293 or K562 cells; the same id is used for endogenous CLEC2D on NALM6 and Raji cells; also called LLT1
T4 sequence: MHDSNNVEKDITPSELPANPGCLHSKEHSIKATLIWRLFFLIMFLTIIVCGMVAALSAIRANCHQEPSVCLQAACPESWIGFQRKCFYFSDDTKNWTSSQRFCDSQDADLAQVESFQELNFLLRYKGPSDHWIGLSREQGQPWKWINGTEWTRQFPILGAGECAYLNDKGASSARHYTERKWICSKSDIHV

B1: Ab7 (antibody, human IgG1, V domains shown)
VH: EVQLLESGGGLVQPGGSLRLSCAASGFTFGQYAMSWVRQAPGKGLEWVSAISAAGGTTYYADSVKGRFTISRDNSKNTLYLQMNSLRAEDTAVYYCAKPLDSSQWADFDLWGRGTLVTVSS
VL: DIQLTQSPSSVSASVGDRVTITCRASQGISSWLAWYQQKPGKAPKLLIYAASFLQSGVPSRFSGSGSGTDFTLTISSLQPEDFATYYCQQASVLPITFGGGTKVEIK
notes: IgG purified from yeast culture
B2: Ab2 (antibody, human IgG1, V domains shown)
VH: B1 VH with T28A, G30S, Q31T, A53G, A54V, Q104L
VL: B1 VL with A50Y, F53S, S56D
notes: as for B1
B3: Ab1 (antibody, human IgG1, V domains shown)
VH: B1 VH with T28A, G30S, Q31T, Q104L
VL: B1 VL with L4M, S30D, F53S
notes: as for B1
B4: Ab6 (antibody, human IgG1, V domains shown)
VH: B1 VH
VL: B1 VL with F53S, S76N, S92W
notes: as for B1
B5: Ab5 (antibody, human IgG1, V domains shown)
VH: B1 VH with A54V, Y59A, Q104L, D109Q
VL: B1 VL with G28D, A50F, F53S, V93K
notes: as for B1
B6: Ab4 (antibody, human IgG1, V domains shown)
VH: B1 VH with G30E, Q31R, A54V, Y59K, Q104L, L110A
VL: B1 VL with F53G, V93Y
notes: as for B1
B7: Ab16 (antibody, human IgG1, V domains shown)
VH: QVQLVESGGGLVKPGGSLRLSCAASGFTFSDYYMSWIRQAPGKGLEWVSYISPSGATIAYADSVKGRFTISRDNSKNTLYLQMNSLRAEDTAVYYCARSLMATGTHLYFDLWGRGTLVTVSS
VL: DIQLTQSPSSVSASVGDRVTITCRASQGISSWLAWYQQKPGKAPKLLIYAASGLQSGVPSRFSGSGSGTDFTLTISSLQPEDFATYYCQQSTSFPPYTFGGGTKVEIK
notes: as for B1
B8: Ab19 (antibody, human IgG1, V domains shown)
VH: B7 VH with D31Q, A59Y, S75A, T78S
VL: B7 VL with G53A, S91V, F94A
notes: as for B1
B9: Ab17 (antibody, human IgG1, V domains shown)
VH: B7 VH with A59Y, S75A, T78S, A102S
VL: B7 VL with G53S, S91V, F94V
notes: as for B1
B10: Ab20 (antibody, human IgG1, V domains shown)
VH: B7 VH with K13Q, D31Q, S75A, T78S, A102S
VL: B7 VL with G53V, S91V, P95L
notes: as for B1

The first assay has as its target T1, hKLRF1. Kind of assay: flow cytometry; 100 nM antibody on HEK293 cells expressing KLRF1; Alexa Fluor 647 anti-human IgG; MFI. (In general: Flow cytometry measures light scatter and fluorescence of single cells or particles in a stream.)
Experimental: (§1) For the antibody binding assay, all cell lines were washed in phosphate-buffered saline with 0.1% bovine serum albumin (PBSA) and seeded in a 96 well plate at a density of 4×10⁴ cells per well. Washed cells were resuspended in 100 nM of antibody (a saturating concentration to measure maximum binding on cells) and incubated at room temperature for 30 minutes. […] Cells were analyzed by flow cytometry with a Thermo Fisher Attune flow cytometer.
(§2) Data were analyzed using FlowJo software. MFI for each sample was calculated and exported into Graphpad Prism.
As to B1, the binding result was “no binding (tested: 100 nM)”.
For B2, the binding result is reported as “no binding (tested: 100 nM)”.
Same read-out and setting: as for B3, the entry is “no binding (tested: 100 nM)”; as for B4, “no binding (tested: 100 nM)”; as for B5, “no binding (tested: 100 nM)”.
As to B6, the binding result was “no binding (tested: 100 nM)”.

Another assay deals with T2, hKLRF2. Kind of assay: flow cytometry, HEK293 transfectants, 100 nM antibody.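 Further: antibody applied at a saturating level and incubated with cells for 30 min at room temperature.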
Experimental: as §1, §2
As to B1, the “% of CD161 binding” value came out at 0.04%.
With B2, the “% of CD161 binding” value was 0.049%.
The same measure, in the same setting: in the case of B3 it was 0.036%; in that of B4, 0.029%; in that of B5, 0.035%.
Same read-out and setting: as for B6, the figure is 0.056%; as for B7, 0.048%; as for B8, 0.22%.
For B9, the “% of CD161 binding” value came out at 0.051%.
On the same count and under the same terms, in the case of B10 it was 0.054%.

A further assay addresses T3, hCLEC12B. The description is as above.
Experimental: as §1, §2
Regarding B1, the “% of CD161 binding” value is 0.011%.
On the same count and under the same terms, in the case of B2 it was 0.057%.
As for B3, the “% of CD161 binding” value is 0.04%.
Still for that read-out and setting: in the case of B4 it was 0.011%; in that of B5, 0.056%.
Same read-out and setting: as for B6, the figure is 0.074%.
On the same count and under the same terms, in the case of B7 it was 0.088%; in that of B8, 0.26%.
For the molecule B9, the “% of CD161 binding” value is 0.038%.
The same measure, in the same setting: as for B10, the figure is 0.061%.

In another assay the target is T4, hCLEC2D. Described as above.
Experimental: as §1, §2
On to B1, for which the “% of CD161 binding” value is 1.09%.
Still for that read-out and setting: in the case of B2 it was 0.863%; in that of B3, 0.975%.
As for B4, the “% of CD161 binding” value is 1.01%.
As for B5, the “% of CD161 binding” value was found to be 0.872%.
Still for that read-out and setting: in the case of B6 it was 1.11%; in that of B7, 0.865%; in that of B8, 0.97%.
Still for that read-out and setting: as for B9, the figure is 1.08%.
B10: the “% of CD161 binding” value is 0.968%.

The next assay has as its target T1, hKLRF1. The description is as above.
Experimental: as §1, §2
For the molecule B1, the “% of CD161 binding” value was determined as 0.018%.
On the same count and under the same terms, in the case of B2 it was 0.032%; in that of B3, 0.073%; in that of B4, 0.036%.
On the same count and under the same terms, in the case of B5 it was 0.059%; in that of B6, 0.095%.
For the molecule B7, the “% of CD161 binding” value came to 0.061%.
Same read-out and setting: in the case of B8 it was 0.305%; in that of B9, 0.078%.
Same read-out and setting: as for B10, the figure is 0.132%.

The next assay has as its target T3, hCLEC12B. Kind of assay: flow cytometry; 100 nM antibody on HEK293 cells expressing CLEC12B; Alexa Fluor 647 anti-human IgG; MFI.
Experimental: as §1, §2
With B1, the binding result was “no binding (tested: 100 nM)”.
Same read-out and setting: in the case of B2 it was “no binding (tested: 100 nM)”; in that of B3, “no binding (tested: 100 nM)”; in that of B4, “no binding (tested: 100 nM)”.
On the same count and under the same terms, as for B5, the entry is “no binding (tested: 100 nM)”; as for B6, “no binding (tested: 100 nM)”.

The next assay concerns the target T4, hCLEC2D. Kind of assay: flow cytometry; 100 nM antibody on HEK293 cells expressing CLEC2D; Alexa Fluor 647 anti-human IgG; MFI.
Experimental: as §1, §2
Take B1: the binding result is reported as “no binding (tested: 100 nM)”.
Still for that read-out and setting: in the case of B2 it was “no binding (tested: 100 nM)”; in that of B3, “no binding (tested: 100 nM)”.
Same read-out and setting: in the case of B4 it was “no binding (tested: 100 nM)”.
Same read-out and setting: in the case of B5 it was “no binding (tested: 100 nM)”.
B6: the binding result was “no binding (tested: 100 nM)”.

The next assay deals with T1, hKLRF1. Kind of assay: flow cytometry; 100 nM antibody on HEK293 cells expressing KLRF1; Alexa Fluor 647 anti-human IgG; MFI. The source holds these as a separate data set.
Experimental: as §1, §2
For B7, the binding result is on record as “no binding (tested: 100 nM)”.
On the same count and under the same terms, in the case of B8 it was “no binding (tested: 100 nM)”.
The same measure, in the same setting: as for B9, the entry is “no binding (tested: 100 nM)”.
Same read-out and setting: in the case of B10 it was “no binding (tested: 100 nM)”.

The target of a further assay is T2, hKLRF2. Kind of assay: flow cytometry; 100 nM antibody on HEK293 cells expressing KLRF2; Alexa Fluor 647 anti-human IgG; MFI.
Experimental: as §1, §2
Turning to B1, the binding result was “no binding (tested: 100 nM)”.
Take B2: the binding result is on record as “no binding (tested: 100 nM)”.
The same measure, in the same setting: in the case of B3 it was “no binding (tested: 100 nM)”; in that of B4, “no binding (tested: 100 nM)”; in that of B5, “no binding (tested: 100 nM)”.
Still for that read-out and setting: as for B6, the entry is “no binding (tested: 100 nM)”.

The next assay deals with T2, hKLRF2. Described as above. The source holds these as a separate data set.
Experimental: as §1, §2
Take B7: the binding result is listed as “no binding (tested: 100 nM)”.
The same measure, in the same setting: as for B8, the entry is “no binding (tested: 100 nM)”.
Still for that read-out and setting: in the case of B9 it was “no binding (tested: 100 nM)”.
The same measure, in the same setting: as for B10, the entry is “no binding (tested: 100 nM)”.

A further assay concerns the target T3, hCLEC12B. Kind of assay: flow cytometry; 100 nM antibody on HEK293 cells expressing CLEC12B; Alexa Fluor 647 anti-human IgG; MFI. This is another data set of the same source.
Experimental: as §1, §2
On to B7, for which the binding result is given as “no binding (tested: 100 nM)”.
On the same count and under the same terms, as for B8, the entry is “no binding (tested: 100 nM)”.
In the case of B9, the binding result is recorded as “no binding (tested: 100 nM)”.
As to B10, the binding result is on record as “no binding (tested: 100 nM)”.

The next assay has as its target T4, hCLEC2D. Nature of the assay: flow cytometry; 100 nM antibody on HEK293 cells expressing CLEC2D; Alexa Fluor 647 anti-human IgG; MFI. This is another data set of the same source.
Experimental: as §1, §2
Take B7: the binding result is listed as “no binding (tested: 100 nM)”.
The same measure, in the same setting: in the case of B8 it was “no binding (tested: 100 nM)”.
Still for that read-out and setting: in the case of B9 it was “no binding (tested: 100 nM)”; in that of B10, “no binding (tested: 100 nM)”.
